From article doi:10.1101/2024.12.12.628227 (bioRxiv, 2024)

B1: parental scFv-osmY fusion protein (tilvestamab scFv) (scFv, V domains shown)
VH: EVQLVESGGGLVQPGGSLRLSCAASGYSFTDFYINWVRQAPGKGLEWVARIFPGGDNTYYNEKFKGRFTLSADTSKSTAYLQMNSLRAEDTAVYYCARRGLYYAMDYWGQGTLVTVSS
VL: DIQMTQSPSSLSASVGDRVTITCRSSQSLVHSNGIPYLHWYQQKPGKAPKLLIYRVSNRFSGVPSRFSGSGSGTDFTLTISSLQPEDFATYYCSQGTHVPPTFGQGTKVEIK
B2: tilvestamab scFv-osmY F33S (scFv, V domains shown)
VH: EVQLVESGGGLVQPGGSLRLSCAASGYSFTDSYINWVRQAPGKGLEWVARIFPGGDNTYYNEKFKGRFTLSADTSKSTAYLQMNSLRAEDTAVYYCARRGLYYAMDYWGQGTLVTVSS
VL: DIQMTQSPSSLSASVGDRVTITCRSSQSLVHSNGIPYLHWYQQKPGKAPKLLIYRVSNRFSGVPSRFSGSGSGTDFTLTISSLQPEDFATYYCSQGTHVPPTFGQGTKVEIK
B3: tilvestamab scFv-osmY F33Y (scFv, V domains shown)
VH: EVQLVESGGGLVQPGGSLRLSCAASGYSFTDYYINWVRQAPGKGLEWVARIFPGGDNTYYNEKFKGRFTLSADTSKSTAYLQMNSLRAEDTAVYYCARRGLYYAMDYWGQGTLVTVSS
VL: DIQMTQSPSSLSASVGDRVTITCRSSQSLVHSNGIPYLHWYQQKPGKAPKLLIYRVSNRFSGVPSRFSGSGSGTDFTLTISSLQPEDFATYYCSQGTHVPPTFGQGTKVEIK
B4: tilvestamab scFv-osmY F33A (scFv, V domains shown)
VH: EVQLVESGGGLVQPGGSLRLSCAASGYSFTDAYINWVRQAPGKGLEWVARIFPGGDNTYYNEKFKGRFTLSADTSKSTAYLQMNSLRAEDTAVYYCARRGLYYAMDYWGQGTLVTVSS
VL: DIQMTQSPSSLSASVGDRVTITCRSSQSLVHSNGIPYLHWYQQKPGKAPKLLIYRVSNRFSGVPSRFSGSGSGTDFTLTISSLQPEDFATYYCSQGTHVPPTFGQGTKVEIK
B5: tilvestamab scFv-osmY T31A (scFv, V domains shown)
VH: EVQLVESGGGLVQPGGSLRLSCAASGYSFADFYINWVRQAPGKGLEWVARIFPGGDNTYYNEKFKGRFTLSADTSKSTAYLQMNSLRAEDTAVYYCARRGLYYAMDYWGQGTLVTVSS
VL: DIQMTQSPSSLSASVGDRVTITCRSSQSLVHSNGIPYLHWYQQKPGKAPKLLIYRVSNRFSGVPSRFSGSGSGTDFTLTISSLQPEDFATYYCSQGTHVPPTFGQGTKVEIK
B6: tilvestamab scFv-osmY G101A (scFv, V domains shown)
VH: EVQLVESGGGLVQPGGSLRLSCAASGYSFTDFYINWVRQAPGKGLEWVARIFPGGDNTYYNEKFKGRFTLSADTSKSTAYLQMNSLRAEDTAVYYCARRALYYAMDYWGQGTLVTVSS
VL: DIQMTQSPSSLSASVGDRVTITCRSSQSLVHSNGIPYLHWYQQKPGKAPKLLIYRVSNRFSGVPSRFSGSGSGTDFTLTISSLQPEDFATYYCSQGTHVPPTFGQGTKVEIK
B7: tilvestamab scFv-osmY D32A (scFv, V domains shown)
VH: EVQLVESGGGLVQPGGSLRLSCAASGYSFTAFYINWVRQAPGKGLEWVARIFPGGDNTYYNEKFKGRFTLSADTSKSTAYLQMNSLRAEDTAVYYCARRGLYYAMDYWGQGTLVTVSS
VL: DIQMTQSPSSLSASVGDRVTITCRSSQSLVHSNGIPYLHWYQQKPGKAPKLLIYRVSNRFSGVPSRFSGSGSGTDFTLTISSLQPEDFATYYCSQGTHVPPTFGQGTKVEIK
B8: tilvestamab scFv-osmY F33T (scFv, V domains shown)
VH: EVQLVESGGGLVQPGGSLRLSCAASGYSFTDTYINWVRQAPGKGLEWVARIFPGGDNTYYNEKFKGRFTLSADTSKSTAYLQMNSLRAEDTAVYYCARRGLYYAMDYWGQGTLVTVSS
VL: DIQMTQSPSSLSASVGDRVTITCRSSQSLVHSNGIPYLHWYQQKPGKAPKLLIYRVSNRFSGVPSRFSGSGSGTDFTLTISSLQPEDFATYYCSQGTHVPPTFGQGTKVEIK
B9: tilvestamab scFv-osmY M106A (scFv, V domains shown)
VH: EVQLVESGGGLVQPGGSLRLSCAASGYSFTDFYINWVRQAPGKGLEWVARIFPGGDNTYYNEKFKGRFTLSADTSKSTAYLQMNSLRAEDTAVYYCARRGLYYAADYWGQGTLVTVSS
VL: DIQMTQSPSSLSASVGDRVTITCRSSQSLVHSNGIPYLHWYQQKPGKAPKLLIYRVSNRFSGVPSRFSGSGSGTDFTLTISSLQPEDFATYYCSQGTHVPPTFGQGTKVEIK
B10: tilvestamab scFv-osmY P238A (scFv, V domains shown)
VH: EVQLVESGGGLVQPGGSLRLSCAASGYSFTDFYINWVRQAPGKGLEWVARIFPGGDNTYYNEKFKGRFTLSADTSKSTAYLQMNSLRAEDTAVYYCARRGLYYAMDYWGQGTLVTVSS
VL: DIQMTQSPSSLSASVGDRVTITCRSSQSLVHSNGIPYLHWYQQKPGKAPKLLIYRVSNRFSGVPSRFSGSGSGTDFTLTISSLQPEDFATYYCSQGTHVPATFGQGTKVEIK
B11: tilvestamab scFv-osmY Y103S (scFv, V domains shown)
VH: EVQLVESGGGLVQPGGSLRLSCAASGYSFTDFYINWVRQAPGKGLEWVARIFPGGDNTYYNEKFKGRFTLSADTSKSTAYLQMNSLRAEDTAVYYCARRGLSYAMDYWGQGTLVTVSS
VL: DIQMTQSPSSLSASVGDRVTITCRSSQSLVHSNGIPYLHWYQQKPGKAPKLLIYRVSNRFSGVPSRFSGSGSGTDFTLTISSLQPEDFATYYCSQGTHVPPTFGQGTKVEIK
B12: tilvestamab scFv-osmY L102A (scFv, V domains shown)
VH: EVQLVESGGGLVQPGGSLRLSCAASGYSFTDFYINWVRQAPGKGLEWVARIFPGGDNTYYNEKFKGRFTLSADTSKSTAYLQMNSLRAEDTAVYYCARRGAYYAMDYWGQGTLVTVSS
VL: DIQMTQSPSSLSASVGDRVTITCRSSQSLVHSNGIPYLHWYQQKPGKAPKLLIYRVSNRFSGVPSRFSGSGSGTDFTLTISSLQPEDFATYYCSQGTHVPPTFGQGTKVEIK
B13: tilvestamab scFv-osmY Y108A (scFv, V domains shown)
VH: EVQLVESGGGLVQPGGSLRLSCAASGYSFTDFYINWVRQAPGKGLEWVARIFPGGDNTYYNEKFKGRFTLSADTSKSTAYLQMNSLRAEDTAVYYCARRGLYYAMDAWGQGTLVTVSS
VL: DIQMTQSPSSLSASVGDRVTITCRSSQSLVHSNGIPYLHWYQQKPGKAPKLLIYRVSNRFSGVPSRFSGSGSGTDFTLTISSLQPEDFATYYCSQGTHVPPTFGQGTKVEIK
B14: tilvestamab scFv-osmY G233A (scFv, V domains shown)
VH: EVQLVESGGGLVQPGGSLRLSCAASGYSFTDFYINWVRQAPGKGLEWVARIFPGGDNTYYNEKFKGRFTLSADTSKSTAYLQMNSLRAEDTAVYYCARRGLYYAMDYWGQGTLVTVSS
VL: DIQMTQSPSSLSASVGDRVTITCRSSQSLVHSNGIPYLHWYQQKPGKAPKLLIYRVSNRFSGVPSRFSGSGSGTDFTLTISSLQPEDFATYYCSQATHVPPTFGQGTKVEIK
B15: tilvestamab scFv-osmY I35A (scFv, V domains shown)
VH: EVQLVESGGGLVQPGGSLRLSCAASGYSFTDFYANWVRQAPGKGLEWVARIFPGGDNTYYNEKFKGRFTLSADTSKSTAYLQMNSLRAEDTAVYYCARRGLYYAMDYWGQGTLVTVSS
VL: DIQMTQSPSSLSASVGDRVTITCRSSQSLVHSNGIPYLHWYQQKPGKAPKLLIYRVSNRFSGVPSRFSGSGSGTDFTLTISSLQPEDFATYYCSQGTHVPPTFGQGTKVEIK
B16: tilvestamab scFv-osmY L102S (scFv, V domains shown)
VH: EVQLVESGGGLVQPGGSLRLSCAASGYSFTDFYINWVRQAPGKGLEWVARIFPGGDNTYYNEKFKGRFTLSADTSKSTAYLQMNSLRAEDTAVYYCARRGSYYAMDYWGQGTLVTVSS
VL: DIQMTQSPSSLSASVGDRVTITCRSSQSLVHSNGIPYLHWYQQKPGKAPKLLIYRVSNRFSGVPSRFSGSGSGTDFTLTISSLQPEDFATYYCSQGTHVPPTFGQGTKVEIK
B17: tilvestamab scFv-osmY Y103A (scFv, V domains shown)
VH: EVQLVESGGGLVQPGGSLRLSCAASGYSFTDFYINWVRQAPGKGLEWVARIFPGGDNTYYNEKFKGRFTLSADTSKSTAYLQMNSLRAEDTAVYYCARRGLAYAMDYWGQGTLVTVSS
VL: DIQMTQSPSSLSASVGDRVTITCRSSQSLVHSNGIPYLHWYQQKPGKAPKLLIYRVSNRFSGVPSRFSGSGSGTDFTLTISSLQPEDFATYYCSQGTHVPPTFGQGTKVEIK
B18: tilvestamab scFv-osmY G233S (scFv, V domains shown)
VH: EVQLVESGGGLVQPGGSLRLSCAASGYSFTDFYINWVRQAPGKGLEWVARIFPGGDNTYYNEKFKGRFTLSADTSKSTAYLQMNSLRAEDTAVYYCARRGLYYAMDYWGQGTLVTVSS
VL: DIQMTQSPSSLSASVGDRVTITCRSSQSLVHSNGIPYLHWYQQKPGKAPKLLIYRVSNRFSGVPSRFSGSGSGTDFTLTISSLQPEDFATYYCSQSTHVPPTFGQGTKVEIK
B19: tilvestamab scFv-osmY L102T (scFv, V domains shown)
VH: EVQLVESGGGLVQPGGSLRLSCAASGYSFTDFYINWVRQAPGKGLEWVARIFPGGDNTYYNEKFKGRFTLSADTSKSTAYLQMNSLRAEDTAVYYCARRGTYYAMDYWGQGTLVTVSS
VL: DIQMTQSPSSLSASVGDRVTITCRSSQSLVHSNGIPYLHWYQQKPGKAPKLLIYRVSNRFSGVPSRFSGSGSGTDFTLTISSLQPEDFATYYCSQGTHVPPTFGQGTKVEIK
B20: tilvestamab scFv-osmY L102Y (scFv, V domains shown)
VH: EVQLVESGGGLVQPGGSLRLSCAASGYSFTDFYINWVRQAPGKGLEWVARIFPGGDNTYYNEKFKGRFTLSADTSKSTAYLQMNSLRAEDTAVYYCARRGYYYAMDYWGQGTLVTVSS
VL: DIQMTQSPSSLSASVGDRVTITCRSSQSLVHSNGIPYLHWYQQKPGKAPKLLIYRVSNRFSGVPSRFSGSGSGTDFTLTISSLQPEDFATYYCSQGTHVPPTFGQGTKVEIK

Molecular target: human AXL Ig1 domain fused to human Fc (Homo sapiens, UniProt P30530)
Assay: BLI

Binder | binding result
B1 | binds
B2 | binds
B3 | binds
B4 | binds
B5 | binds
B6 | binds
B7 | binds
B8 | binds
B9 | binds
B10 | binds
B11 | binds
B12 | binds
B13 | binds
B14 | binds
B15 | binds
B16 | binds
B17 | binds
B18 | binds
B19 | binds
B20 | binds
